Data reported in the supplement of paper PMC10065799, “High-throughput profiling of sequence recognition by tyrosine kinases and SH2 domains using bacterial peptide display” (eLife, 2023).

These sequences were tested against Hck (UniProt P08631) (assay: phosphorylation enrichment, bacterial display (enrichment ratio); higher = better substrate or ligand; peptides without Tyr show the background).
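Note: 11-residue human phosphosite peptides and single-mutation variants displayed on the E. coli surface, counted by deep sequencing, each peptide's frequency after selection divided by its frequency in the unselected input library; frequency after pTyr selection over input frequency; kinase dosed for 20-30% of maximal phosphorylation in three min.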

Sequence of Hck (P08631 whole entry, looked up): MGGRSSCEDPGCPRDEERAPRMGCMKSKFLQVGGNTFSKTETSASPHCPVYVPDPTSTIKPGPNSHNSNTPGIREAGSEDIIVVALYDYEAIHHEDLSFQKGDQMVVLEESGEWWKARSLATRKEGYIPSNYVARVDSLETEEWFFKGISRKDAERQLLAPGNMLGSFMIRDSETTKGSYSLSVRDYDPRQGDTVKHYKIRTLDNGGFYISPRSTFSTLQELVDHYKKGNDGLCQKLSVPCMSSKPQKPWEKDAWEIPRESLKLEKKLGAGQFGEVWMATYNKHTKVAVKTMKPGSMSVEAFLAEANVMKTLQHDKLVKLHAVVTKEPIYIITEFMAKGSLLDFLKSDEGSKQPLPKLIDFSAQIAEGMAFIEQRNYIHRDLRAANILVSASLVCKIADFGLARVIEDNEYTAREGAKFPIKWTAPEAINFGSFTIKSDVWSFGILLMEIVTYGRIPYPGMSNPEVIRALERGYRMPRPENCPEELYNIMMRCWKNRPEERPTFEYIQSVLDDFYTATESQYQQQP

| Sequence | phosphorylation enrichment |
| --- | --- |
| RWQQLYDTLNA [EIF3M_Y351_Q346R] | 7.68 |
| EFNLMYDGAKE [IRF6_Y97_T100A] | 0.702 |
| WGTAEYDSVVA [MAP1A_Y1883] | 1.16 |
| KMATAYIRSMS [BCO1_Y264_R267S] | 0.388 |
| SLDLSYFPTSS [EMD_Y181_YF] | 0.432 |
| RLNWIYYKDQT [RS1_Y165] | 0.947 |
| PGQAAYQKVVA [HBB_Y131_V127G] | 0.361 |
| SPLTDYSPQLQ [OTC_Y345_L341P] | 0.417 |
| RRGTGYTLPLP [MAGEC3_Y152_S155P] | 0.607 |
| GHLFAYDWISI [BEST1_Y227_YF] | 1.4 |
| AGIVVYNIIGW [MYH7_Y588_D587V] | 2.35 |
| TDLAFYLVRKG [ASL_Y376_YF] | 0.67 |
| PAGSGYPAYLG [ATP6V1A_Y374_D371G] | 0.645 |
| CNTIHYNYMCN [TP53_Y234_T230N] | 0.428 |
| FEEVVYQAMEE [TACC3_Y684] | 1.74 |
| GVRLYYRVMES [RB1_Y454] | 0.437 |
| CGADSYEMEED [EGFR_Y316] | 0.705 |

| Sequence | phosphorylation enrichment |
| --- | --- |
| IYETDYYRKGG [INSR_Y1189] | 1.28 |
| EIIPFYGMSSF [FNDC3B_Y175_T179S_YF] | 1.15 |
| LICRRYLVMQR [IL3RA_Y328_V323L] | 0.729 |
| NDTAGYFIIGG [SEL1L3_Y399] | 0.601 |
| TWSPKYTLRSH [STRN3_Y474_N471S] | 0.419 |
| CTTLHYNFMCN [TP53_Y234_I232L_YF] | 0.395 |
| GRQGIYTENER [GPR143_Y231] | 0.439 |
| MFRVQYNSSVD [LRFN1_Y458_Q455R_YF] | 0.406 |
| NVVQEYERVII [NPHS2_Y131_K126N] | 0.589 |
| DGFTDYAEFAK [MCFD2_Y138_I136T_YF] | 0.954 |
| VSYGEYRYRSV [CFTR_Y515_D513G] | 2.04 |
| SGASGYSATST [CERT1_Y143] | 0.478 |
| LPVHFYGHVEH [PYGM_Y204] | 0.935 |
| LLQAEYWHDPI [PPT1_Y185_V181L] | 0.667 |
| AMGPVYQAAAL [HYOU1_Y421_A419P] | 6.53 |
| PVFEVYPLLNC [GATA1_Y78_Q76E] | 0.597 |

Each sequence was assayed on Fer (mouse) in the same assay as above.

| Sequence | phosphorylation enrichment |
| --- | --- |
| RWQQLYDTLNA [EIF3M_Y351_Q346R] | 3.35 |
| EFNLMYDGAKE [IRF6_Y97_T100A] | 0.593 |
| WGTAEYDSVVA [MAP1A_Y1883] | 1.57 |
| KMATAYIRSMS [BCO1_Y264_R267S] | 0.337 |
| SLDLSYFPTSS [EMD_Y181_YF] | 0.353 |
| RLNWIYYKDQT [RS1_Y165] | 0.844 |
| PGQAAYQKVVA [HBB_Y131_V127G] | 0.49 |
| SPLTDYSPQLQ [OTC_Y345_L341P] | 0.421 |
| RRGTGYTLPLP [MAGEC3_Y152_S155P] | 0.424 |
| GHLFAYDWISI [BEST1_Y227_YF] | 15.1 |
| AGIVVYNIIGW [MYH7_Y588_D587V] | 0.726 |
| TDLAFYLVRKG [ASL_Y376_YF] | 0.541 |
| PAGSGYPAYLG [ATP6V1A_Y374_D371G] | 0.866 |
| CNTIHYNYMCN [TP53_Y234_T230N] | 0.554 |
| FEEVVYQAMEE [TACC3_Y684] | 1.21 |
| GVRLYYRVMES [RB1_Y454] | 0.538 |
| CGADSYEMEED [EGFR_Y316] | 0.533 |

| Sequence | phosphorylation enrichment |
| --- | --- |
| IYETDYYRKGG [INSR_Y1189] | 1.54 |
| EIIPFYGMSSF [FNDC3B_Y175_T179S_YF] | 1.46 |
| LICRRYLVMQR [IL3RA_Y328_V323L] | 0.956 |
| NDTAGYFIIGG [SEL1L3_Y399] | 0.494 |
| TWSPKYTLRSH [STRN3_Y474_N471S] | 0.389 |
| CTTLHYNFMCN [TP53_Y234_I232L_YF] | 0.708 |
| GRQGIYTENER [GPR143_Y231] | 0.466 |
| MFRVQYNSSVD [LRFN1_Y458_Q455R_YF] | 0.415 |
| NVVQEYERVII [NPHS2_Y131_K126N] | 4.44 |
| DGFTDYAEFAK [MCFD2_Y138_I136T_YF] | 0.477 |
| VSYGEYRYRSV [CFTR_Y515_D513G] | 0.442 |
| SGASGYSATST [CERT1_Y143] | 0.448 |
| LPVHFYGHVEH [PYGM_Y204] | 1.9 |
| LLQAEYWHDPI [PPT1_Y185_V181L] | 0.74 |
| AMGPVYQAAAL [HYOU1_Y421_A419P] | 6.15 |
| PVFEVYPLLNC [GATA1_Y78_Q76E] | 0.533 |

The sequences below were run against Jak2 (UniProt O60674) in the same assay as above.
Sequence of Jak2 (O60674 whole entry, looked up): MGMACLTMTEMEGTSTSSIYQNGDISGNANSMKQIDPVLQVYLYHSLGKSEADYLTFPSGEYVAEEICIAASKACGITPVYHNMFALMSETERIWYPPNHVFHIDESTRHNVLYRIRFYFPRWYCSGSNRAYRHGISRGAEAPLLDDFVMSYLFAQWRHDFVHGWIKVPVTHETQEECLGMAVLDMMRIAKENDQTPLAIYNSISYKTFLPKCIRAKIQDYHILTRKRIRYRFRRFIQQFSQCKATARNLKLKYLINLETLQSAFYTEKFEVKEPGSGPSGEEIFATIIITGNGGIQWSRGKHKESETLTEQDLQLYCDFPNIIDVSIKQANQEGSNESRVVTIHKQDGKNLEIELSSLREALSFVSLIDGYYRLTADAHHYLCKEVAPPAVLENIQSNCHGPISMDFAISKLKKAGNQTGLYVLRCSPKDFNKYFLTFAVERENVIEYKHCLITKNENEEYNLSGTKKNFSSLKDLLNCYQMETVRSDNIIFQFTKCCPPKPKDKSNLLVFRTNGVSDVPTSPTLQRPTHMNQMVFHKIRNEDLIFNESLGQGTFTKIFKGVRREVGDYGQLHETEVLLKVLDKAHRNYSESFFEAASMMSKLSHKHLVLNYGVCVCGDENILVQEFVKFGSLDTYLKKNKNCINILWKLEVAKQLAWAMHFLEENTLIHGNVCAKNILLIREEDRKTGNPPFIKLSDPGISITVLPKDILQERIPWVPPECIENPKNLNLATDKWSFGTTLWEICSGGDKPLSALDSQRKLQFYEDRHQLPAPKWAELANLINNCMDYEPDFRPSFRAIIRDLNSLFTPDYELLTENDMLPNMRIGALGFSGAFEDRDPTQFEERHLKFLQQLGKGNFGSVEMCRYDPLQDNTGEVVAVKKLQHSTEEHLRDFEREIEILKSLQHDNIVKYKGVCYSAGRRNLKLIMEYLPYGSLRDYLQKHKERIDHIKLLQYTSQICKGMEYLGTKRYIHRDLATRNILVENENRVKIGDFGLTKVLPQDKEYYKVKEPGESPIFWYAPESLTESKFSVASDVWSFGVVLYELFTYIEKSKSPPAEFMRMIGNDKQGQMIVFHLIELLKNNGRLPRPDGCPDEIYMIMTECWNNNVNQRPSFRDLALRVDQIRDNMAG

| Sequence | phosphorylation enrichment |
| --- | --- |
| RWQQLYDTLNA [EIF3M_Y351_Q346R] | 2.43 |
| EFNLMYDGAKE [IRF6_Y97_T100A] | 1.13 |
| WGTAEYDSVVA [MAP1A_Y1883] | 1.18 |
| KMATAYIRSMS [BCO1_Y264_R267S] | 0.518 |
| SLDLSYFPTSS [EMD_Y181_YF] | 2.93 |
| RLNWIYYKDQT [RS1_Y165] | 1.78 |
| PGQAAYQKVVA [HBB_Y131_V127G] | 0.626 |
| SPLTDYSPQLQ [OTC_Y345_L341P] | 0.691 |
| RRGTGYTLPLP [MAGEC3_Y152_S155P] | 1.01 |
| GHLFAYDWISI [BEST1_Y227_YF] | 0.707 |
| AGIVVYNIIGW [MYH7_Y588_D587V] | 1.37 |
| TDLAFYLVRKG [ASL_Y376_YF] | 0.946 |
| PAGSGYPAYLG [ATP6V1A_Y374_D371G] | 0.727 |
| CNTIHYNYMCN [TP53_Y234_T230N] | 0.799 |
| FEEVVYQAMEE [TACC3_Y684] | 1.35 |
| GVRLYYRVMES [RB1_Y454] | 1.02 |
| CGADSYEMEED [EGFR_Y316] | 1.08 |

| Sequence | phosphorylation enrichment |
| --- | --- |
| IYETDYYRKGG [INSR_Y1189] | 0.942 |
| EIIPFYGMSSF [FNDC3B_Y175_T179S_YF] | 0.772 |
| LICRRYLVMQR [IL3RA_Y328_V323L] | 2.35 |
| NDTAGYFIIGG [SEL1L3_Y399] | 6.38 |
| TWSPKYTLRSH [STRN3_Y474_N471S] | 0.728 |
| CTTLHYNFMCN [TP53_Y234_I232L_YF] | 0.758 |
| GRQGIYTENER [GPR143_Y231] | 0.548 |
| MFRVQYNSSVD [LRFN1_Y458_Q455R_YF] | 0.908 |
| NVVQEYERVII [NPHS2_Y131_K126N] | 0.772 |
| DGFTDYAEFAK [MCFD2_Y138_I136T_YF] | 1.34 |
| VSYGEYRYRSV [CFTR_Y515_D513G] | 0.612 |
| SGASGYSATST [CERT1_Y143] | 0.539 |
| LPVHFYGHVEH [PYGM_Y204] | 1.63 |
| LLQAEYWHDPI [PPT1_Y185_V181L] | 1.55 |
| AMGPVYQAAAL [HYOU1_Y421_A419P] | 0.615 |
| PVFEVYPLLNC [GATA1_Y78_Q76E] | 1.48 |

These sequences were tested against EPHB2 (UniProt P29323) in the same assay as above.
Sequence of EPHB2 (P29323 whole entry, looked up): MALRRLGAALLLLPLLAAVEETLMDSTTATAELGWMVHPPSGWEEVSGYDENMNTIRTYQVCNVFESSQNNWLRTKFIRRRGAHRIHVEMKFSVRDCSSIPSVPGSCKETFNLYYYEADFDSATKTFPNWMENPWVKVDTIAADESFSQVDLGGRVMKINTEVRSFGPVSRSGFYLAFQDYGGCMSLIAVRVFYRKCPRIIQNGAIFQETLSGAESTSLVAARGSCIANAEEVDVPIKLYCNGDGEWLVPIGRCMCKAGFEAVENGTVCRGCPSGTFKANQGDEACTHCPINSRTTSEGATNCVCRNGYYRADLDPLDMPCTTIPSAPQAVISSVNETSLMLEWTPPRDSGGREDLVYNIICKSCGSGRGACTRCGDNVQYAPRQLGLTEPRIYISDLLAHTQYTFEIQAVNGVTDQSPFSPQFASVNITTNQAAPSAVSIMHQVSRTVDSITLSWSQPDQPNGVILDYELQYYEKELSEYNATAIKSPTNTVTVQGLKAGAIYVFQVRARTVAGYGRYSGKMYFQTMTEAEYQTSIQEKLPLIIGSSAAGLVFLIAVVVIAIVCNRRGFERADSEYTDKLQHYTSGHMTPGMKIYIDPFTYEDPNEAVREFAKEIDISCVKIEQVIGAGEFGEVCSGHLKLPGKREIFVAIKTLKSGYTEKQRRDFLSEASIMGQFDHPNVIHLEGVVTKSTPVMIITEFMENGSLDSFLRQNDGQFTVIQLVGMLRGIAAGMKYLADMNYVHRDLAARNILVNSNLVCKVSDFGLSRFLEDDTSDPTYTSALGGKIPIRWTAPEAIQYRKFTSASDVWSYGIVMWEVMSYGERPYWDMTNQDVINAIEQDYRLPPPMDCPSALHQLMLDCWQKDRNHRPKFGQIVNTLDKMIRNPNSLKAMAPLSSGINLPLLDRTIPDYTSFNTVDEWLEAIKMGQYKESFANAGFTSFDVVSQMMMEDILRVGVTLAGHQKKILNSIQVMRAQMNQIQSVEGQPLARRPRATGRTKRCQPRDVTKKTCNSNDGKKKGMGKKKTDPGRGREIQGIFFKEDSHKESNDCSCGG

| Sequence | phosphorylation enrichment |
| --- | --- |
| RWQQLYDTLNA [EIF3M_Y351_Q346R] | 2.02 |
| EFNLMYDGAKE [IRF6_Y97_T100A] | 0.576 |
| WGTAEYDSVVA [MAP1A_Y1883] | 0.86 |
| KMATAYIRSMS [BCO1_Y264_R267S] | 0.374 |
| SLDLSYFPTSS [EMD_Y181_YF] | 0.513 |
| RLNWIYYKDQT [RS1_Y165] | 0.712 |
| PGQAAYQKVVA [HBB_Y131_V127G] | 0.525 |
| SPLTDYSPQLQ [OTC_Y345_L341P] | 0.517 |
| RRGTGYTLPLP [MAGEC3_Y152_S155P] | 0.387 |
| GHLFAYDWISI [BEST1_Y227_YF] | 0.823 |
| AGIVVYNIIGW [MYH7_Y588_D587V] | 0.633 |
| TDLAFYLVRKG [ASL_Y376_YF] | 0.725 |
| PAGSGYPAYLG [ATP6V1A_Y374_D371G] | 0.638 |
| CNTIHYNYMCN [TP53_Y234_T230N] | 0.581 |
| FEEVVYQAMEE [TACC3_Y684] | 0.737 |
| GVRLYYRVMES [RB1_Y454] | 0.574 |
| CGADSYEMEED [EGFR_Y316] | 0.72 |

| Sequence | phosphorylation enrichment |
| --- | --- |
| IYETDYYRKGG [INSR_Y1189] | 0.673 |
| EIIPFYGMSSF [FNDC3B_Y175_T179S_YF] | 0.916 |
| LICRRYLVMQR [IL3RA_Y328_V323L] | 1.72 |
| NDTAGYFIIGG [SEL1L3_Y399] | 0.523 |
| TWSPKYTLRSH [STRN3_Y474_N471S] | 0.477 |
| CTTLHYNFMCN [TP53_Y234_I232L_YF] | 0.406 |
| GRQGIYTENER [GPR143_Y231] | 0.427 |
| MFRVQYNSSVD [LRFN1_Y458_Q455R_YF] | 0.477 |
| NVVQEYERVII [NPHS2_Y131_K126N] | 2.22 |
| DGFTDYAEFAK [MCFD2_Y138_I136T_YF] | 0.741 |
| VSYGEYRYRSV [CFTR_Y515_D513G] | 0.416 |
| SGASGYSATST [CERT1_Y143] | 0.514 |
| LPVHFYGHVEH [PYGM_Y204] | 0.889 |
| LLQAEYWHDPI [PPT1_Y185_V181L] | 0.511 |
| AMGPVYQAAAL [HYOU1_Y421_A419P] | 1.25 |
| PVFEVYPLLNC [GATA1_Y78_Q76E] | 0.756 |
